Experimental data published in US20220265772A1, “USES OF DAN FAMILY BMP ANTAGONISTS FOR INHIBITING OCULAR NEOVASCULARIZATION AND TREATING OCULAR CONDITIONS” (9636137 Canada Inc., priority 2019, published 2022).

Legend:
mouse choroidal explants = experiment: Choroidal explant sprouting in culture; type: cell-based; details: P5 mouse choroidal explants exposed to serum and VEGF
Experimental: FIG. 1 is a panel with pictures, bar graphs, and graphs showing that Dand5 reduces VEGF-mediated sprouting angiogenesis in cultured endothelial cells. FIG. 1A: HUVECs grown in a fibrinogen gel were treated with VEGF to induce tube formation in the presence or absence of Dand5. […] FIG. 1B: HUVECs were plated to confluency and scratched to stimulate a wound in the presence or absence of Dand5. Scale bar, 100 μm. FIG. 1C: Quantification of tube formation in FIG. 1A n=3, *p<0.05, **p<0.01). FIG. 1E: Choroids were isolated from wild-type mice and cultured in vitro in the absence or presence of Dand5. […] FIG. 1F: Quantification of sprouting areas in choroidal sprouts (n=3, ***p<0.0001). […] FIG. 1H: HUVECs were cultured in the presence or absence of Dand5 and analyzed by immunofluorescence using antibodies against phospho-Histone 3 (PH3), a marker of cellular mitosis, and phalloidin and DAPI (nuclei). […] FIG. 1I: Quantification immunofluorescent staining of phospho-histone 3 positive cells. […] FIG. 1K: Quantification of immunofluorescent staining of cleaved caspase 3 (n=2, n.s.).
To evaluate the cellular mechanisms underlying the inhibitory effects of DAND5 on endothelial cells sprouting, we assessed the effects of DAND5 on endothelial cell migration and proliferation. […]
We exposed or not HUVECs to recombinant DAND5 and measured the concentration of free radicals using DCFDA and MitoSoxRed™. […]

[1] = tested on: human pluripotent stem cells / stem cell-derived human cones; details: cited from earlier work
[2] = tested on: human pluripotent stem cells / stem cell-derived human cones; experiment: Cone photoreceptor differentiation, maintenance and survival (earlier study and unpublished work); type: cell-based; details: in vitro, unpublished work
From the text: Inactivation of DAND5 in mice leads to multiple laterality and cardiovascular defects and a significant proportion of animals die perinatally. […] However, prior to the present invention, it was unknown that DAND5, or any of the six other members of the DAN family of BMP antagonists, could play a role in inhibiting and preventing ocular neovascularization and pathological angiogenesis.

Wnt-induced angiogenesis = experiment: Wnt1 and DAND5 co-injection during retinal vascular development (P1 to P5); type: in vivo, mouse; details: quantification of vascular branches in treated eyes
Experimental: FIG. 13 is a panel with pictures and graphs showing that Dand5 opposes Wnt1-mediated hypervascularization during retinal vascular development. FIG. 13A: Schematic representation of experimental design. C57B6 pups were injected at P1 with PBS, Dand5 (60 ng/mL), Wnt1, or Wnt1 and Dand5 together at various molar ratios (1N, 5N and 10N). FIG. 13B: Representative images of retinas treated with PBS, Dand5 (1N) or Wnt1 (1N). FIG. 13C: Representative images of retinas treated with PBS or with Wnt1 (5N and 10N) alone or in combination with Danb5. Dand5 Flatmounts retinas were stained with Isolectin B4 to visualize the vasculature. FIG. 13D: Quantification of vascular branches in treated eyes. […] To address the antagonism of DAND5 on Wnt-induced angiogenesis, retinas were injected with recombinant DAND5 (60 ng) with increasing concentrations of Wnt1 (0, 1, 5 or 10× molar ratio) at P1 and retinas were harvested at P5 (FIG. 13A).

HUVECs = experiment: Apoptosis of cultured endothelial cells (cleaved caspase 3); type: cell-based, human; details: HUVECs cultured for 18 hours
Wnt signaling = details: previous study (5); cited from earlier work
[3] = tested on: choroidal neovascularization; experiment: Laser-induced choroidal neovascularization (CNV); type: in vivo, mouse
Experimental: Three-month-old C57BL/6J mice were anesthetised with a ketamine/xylazine mix prior to applying a photocoagulating laser (400 mW intensity, 0.05 s exposure time). Four spots were burned around the optical nerve. Mice received 100 ng of recombinant human DAND5 intravitreally or similar volume of vehicle in the contralateral eye. Eyes were enucleated after 14 days and processed for immunostaining.
Ocular globes were initially fixed for 15 min in 4% paraformaldehyde (PFA). Retinas or choroids were collected after eyes dissection in PBS and blocked 1 h in PBS 3% BSA 0.1% Triton X-100™. Fixation was prolonged in 1% PFA overnight for choroid extraction or eyes sectioning. […] Quantitative analysis of tufts, vaso-obliterated or vessel areas were performed using imageJ/Swift_NV™ as previously described (1). Neovascular tuft formation was quantified by comparing the number of pixels in the affected areas with the total number of pixels in the retina. The avascular area in the retina was measured in the same way using an anti-DAND5/COCO polyclonal goat IgG antibody (AF3047, R&D systems).
The effects of DAND5 on choroidal neovascularization (CNV) were also evaluated by subjecting mice to laser-induced CNV, a model which recapitulates the CNV occurring in wet AMD patients. […]

B1: DAND5: human recombinant DAND5/COCO biologically active fragment produced in E. coli, predicted 18.2 kDa monomer, R&D systems 3047-CC-050 (protein)
chain: MRPEPQSPRPQSWAAANQTWALGPGALPPLVPASALGSWKAFLGLQKARQLGMGRLQRGQDEVAAVTLPLNPQEVIQGMCKAVPFVQVFSRPGCSAIRLRNHLCFGHCSSLYIPGSDPTPLVLCNSCMPARKRWAPVVLWCLTGSSASRRRVKISTMLIEGCHCSPKA
For B1, the “growth of choroidal explants” value (mouse choroidal explants) is given as “inhibited the growth of P5 mouse choroidal explants exposed to serum and VEGF”, the “cone photoreceptor differentiation and maintenance” value ([1]; recent study (16)) is given as “potent inducer of cone photoreceptor differentiation and maintenance” and the “differentiation of human pluripotent stem cells into cone photoreceptors” value ([1]; reference (16)) is given as “can promote the differentiation of human pluripotent stem cells into cone photoreceptors”. For the same molecule, the “survival of stem cell-derived human cones” value [2] was “displays pro-survival activities”, the “mutual antagonism on vascular branches” value (Wnt-induced angiogenesis) was “mutually antagonist activities” and the “proportion of cleaved caspase 3 (CC3)-positive cells” value (HUVECs) was “did not show differences in the proportion of cleaved caspase 3 (CC3)-positive cells”. The “Wnt signaling in photoreceptors” value (Wnt signaling) was “potent inhibitor of Wnt signaling in photoreceptors”, the “inhibitory effect on retinal and choroidal neovascularization compared with Flt1Fc” value ([3]; OIR and laser-induced CNV together) was “significantly better than VEGF inhibition with Flt1Fc” and the “area of CNV” value ([3]; laser impact, intravitreal delivery, 14 days, compared with controls) was “significant decrease in the area of CNV”.
